Measured values taken from paper PMC7545189, “Structural characterization of the ICOS/ICOS-L immune complex reveals high molecular mimicry by therapeutic antibodies” (Nature Communications, 2020).

Assays:
Settings in all cases: both partners purified
[1] = target: T1, human ICOS-L ectodomain (residues 19-248), crystallised in complexes (human, UniProt O75144 19-248); test: crystal structure; ICOS (21-129)/ICOS-L (19-248)/VNAR complex, co-expressed and co-purified, 3.3 A; 0.1 M HEPES pH 7.0, 30% Jeffamine ED-2001
T1 construct: not shown: Venus (monomeric variant), C-terminal, cleaved; His6, C-terminal, cleaved
T1 sequence (looked up): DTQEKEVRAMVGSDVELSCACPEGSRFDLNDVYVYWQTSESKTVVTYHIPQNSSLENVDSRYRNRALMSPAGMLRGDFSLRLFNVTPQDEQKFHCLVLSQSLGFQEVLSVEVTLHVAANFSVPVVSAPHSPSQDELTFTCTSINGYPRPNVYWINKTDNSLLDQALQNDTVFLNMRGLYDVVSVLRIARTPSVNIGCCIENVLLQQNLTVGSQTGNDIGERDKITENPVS

[2] = target: T2, human ICOS-L ectodomain (residues 19-248), crystallised in complexes (human, UniProt O75144); test: crystal structure; ICOS-L/prezalumab Fab/VNAR complex, co-expressed and co-purified, 3.15 A; 0.2 M di-ammonium tartrate, 20% PEG 3350
T2 construct: not shown: Venus (monomeric variant), C-terminal, cleaved; His6, C-terminal, cleaved

[3] = target: T3, human ICOS C136A C137A N23Q (residues 21-138), crystallised with STIM003 Fab (human, UniProt Q9Y6W8, C136A | C137A | N23Q); test: crystal structure; ICOS C136A C137A N23Q/STIM003 Fab complex, co-expressed and co-purified, then incubated 1:5 with anti-kappa VHH and gel filtered, 2.38 A; 0.2 M di-sodium hydrogen phosphate, 20% PEG 3350
T3 construct: human ICOS ectodomain, UniProtKB Q9Y6W8, residues 21-138 with C136A, C137A and N23Q; not shown: Venus (monomeric variant), C-terminal, cleaved; His6, C-terminal, cleaved

[4] = target: T4, human ICOS-L ectodomain (residues 19-248), His-tagged, immobilised on Ni-NTA biosensors (human, UniProt O75144 19-248); test: BLI; His-tagged ICOS-L on Ni-NTA biosensors (0.8 nm), untagged ICOS (wild-type and mutants) as analyte, 1:2 serial dilutions from 125 nM; PBS pH 7.4, 0.01% BSA, 0.002% Tween; 1:1 fit; apparent constant (avidity of the ICOS homodimer)
T4 construct: also called ICOS ligand; CD275; source: HEK 293F, transiently transfected, purified from the supernatant (HisTrap Ni-NTA); not shown: His6, C-terminal, kept
T4 sequence (looked up): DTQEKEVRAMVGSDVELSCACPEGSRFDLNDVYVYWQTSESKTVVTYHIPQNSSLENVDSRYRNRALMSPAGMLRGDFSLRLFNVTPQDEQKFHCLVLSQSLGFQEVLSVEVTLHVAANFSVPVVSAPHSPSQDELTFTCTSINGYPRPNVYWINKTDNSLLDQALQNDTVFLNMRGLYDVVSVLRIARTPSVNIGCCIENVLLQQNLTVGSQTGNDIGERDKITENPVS

T3 sequence (Q9Y6W8 21-138 N23Q/C136A/C137A): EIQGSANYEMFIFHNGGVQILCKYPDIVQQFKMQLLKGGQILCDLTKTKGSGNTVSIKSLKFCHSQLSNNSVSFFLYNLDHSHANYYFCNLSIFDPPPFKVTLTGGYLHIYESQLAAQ

B1: human ICOS ectodomain (residues 21-129), crystallised with ICOS-L and VNAR (domain or fragment, UniProt Q9Y6W8 21-129, looked up)
chain: EINGSANYEMFIFHNGGVQILCKYPDIVQQFKMQLLKGGQILCDLTKTKGSGNTVSIKSLKFCHSQLSNNSVSFFLYNLDHSHANYYFCNLSIFDPPPFKVTLTGGYLH
modifications: N-linked glycan at N110 seen in the structure (two GlcNAc and three mannose residues)
notes: not shown: Venus (monomeric variant), C-terminal, cleaved; His6, C-terminal, cleaved
stoichiometry N [1]: 1

B2: prezalumab Fab (co-expressed with ICOS-L and VNAR, for the crystal structure) (Fab, V domains shown)
VH: EVQLVESGGGLVQPGGSLRLSCAASGFTFSSYWMSWVRQAPGKGLEWVAYIKQDGNEKYYVDSVKGRFTISRDNAKNSLYLQMNSLRAEDTAVYYCAREGILWFGDLPTFWGQGTLVTVSS
VL: DIQMTQSPSSLSASVGDRVTITCRASQGISNWLAWYQQKPEKAPKSLIYAASSLQSGVPSRFSGSGSGTDFTLTISSLQPEDFATYYCQQYDSYPRTFGQGTKVEIK
notes: as the heavy chain of m14; as the light chain of m14; source: HEK 293S (Gnt I-/-), co-transfected with ICOS-L and VNAR, complex purified
binding result [2]: binds

B3: STIM003 Fab (co-expressed with ICOS, for the crystal structure) (Fab, V domains shown)
VH: EVQLVESGGGVVRPGGSLRLSCVASGVTFDDYGMSWVRQAPGKGLEWVSGINWNGGDTDYSDSVKGRFTISRDNAKNSLYLQMNSLRAEDTALYYCARDFYGSGSYYHVPFDYWGQGILVTVSS
VL: EIVLTQSPGTLSLSPGERATLSCRASQSVSRSYLAWYQQKRGQAPRLLIYGASSRATGIPDRFSGDGSGTDFTLSISRLEPEDFAVYYCHQYDMSPFTFGPGTKVDIK
notes: as the heavy chain of m12; as the light chain (kappa) of m12; source: HEK 293S (Gnt I-/-), co-transfected with ICOS C136A C137A N23Q, complex purified
binding result [3]: binds

B4: human ICOS ectodomain (residues 21-138), untagged, disulfide-linked homodimer (receptor, UniProt Q9Y6W8 21-138, looked up)
chain: EINGSANYEMFIFHNGGVQILCKYPDIVQQFKMQLLKGGQILCDLTKTKGSGNTVSIKSLKFCHSQLSNNSVSFFLYNLDHSHANYYFCNLSIFDPPPFKVTLTGGYLHIYESQLCCQ
notes: human ICOS ectodomain, UniProtKB Q9Y6W8, residues 21-138; Residues of the TEV site probably remain at the C-terminus after cleavage; also called ICOS WT; ICOS disulfide-linked homodimers; source: HEK 293F, transiently transfected, purified (HisTrap Ni-NTA, TEV digestion, second Ni-NTA, Superdex 200); not shown: Venus (monomeric variant), C-terminal, cleaved; His6, C-terminal, cleaved
Kd [4]: 10 nM

B5: human ICOS ectodomain N110Q (N110 glycan knock-out mutant), analyte (receptor, UniProt Q9Y6W8 21-138, looked up)
chain: EINGSANYEMFIFHNGGVQILCKYPDIVQQFKMQLLKGGQILCDLTKTKGSGNTVSIKSLKFCHSQLSNNSVSFFLYNLDHSHANYYFCQLSIFDPPPFKVTLTGGYLHIYESQLCCQ
notes: human ICOS ectodomain, UniProtKB Q9Y6W8, N110Q removes the N-linked glycosylation site; limits are those of the ectodomain construct of the methods; also called ICOS N110Q; ICOS N110 glycan knock-out mutant; source: HEK 293F, transiently transfected, purified (as the ICOS ectodomain); not shown: Venus (monomeric variant), C-terminal, cleaved; His6, C-terminal, cleaved
fold improvement in binding affinity against WT ICOS [4]: 4.3 fold
